The nanobody polyreactivity screen of Harvey et al. (2022)

Assay: yeast display, Sf9 membrane polyspecificity reagent, FACS + sequencing; frameworks hold sequencing errors
Method in brief: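 Sorting gates, low and high (top ~1%), were placed on anti-HA fluorescence to track expression and on streptavidin fluorescence to track reagent binding. A clone's polyreactivity label is taken from the gate it came out of. The reagent was 10% biotinylated, detergent-solubilized Sf9 membrane, applied for 1 hour at 4 °C to galactose-induced yeast display cells.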
In the case of “QVQLVESGGGLVQAGGSLRLSCAASGINFFGYAMGWYRQAPGKERELVAGISRSTGRTYYADSVKGRFTISRDNAKNTVYLQMNSLKQEDTSVYYCAARATRSLSRSMDYWGQGTQVTVSS”, the “polyreactivity (PSR sort gate)” value is reported as “high polyreactivity”. For “QVQLVESAGGLVQAGGSLRLSCDASGLTYSYYAMGWYIQAPGKERELVAAISWSGGSTYYADSVNGRFTISRDNAKNTVYLQMNSLKPEDTAVYYCAKYPNRHYWYDYWGQGTQVTVSS”, the “polyreactivity (PSR sort gate)” value was “low polyreactivity”. In the case of “QVQLLDSGGGLVKAGGILRLSCAASGRTFGRYAMGCYRQSPGKERELVATISSRGGNAYYAESVKGRFTISRDNAKNTVYFQMNSLKPEYTGVYYCEAQTYKCYDWRQGTQVTVSS”, the “polyreactivity (PSR sort gate)” value is reported as “high polyreactivity”. For “QVQLVESGGGLVQAGGSLRLSCAASGFTFRRYVMGWYRQAPGKERELVAAISQSGGSTYYADSVKGRFTISRDNAKNTVYLQMNSLKPEDTAVYYCAAAKVPYGWEQSDYWGQGTQVTVSS”, the “polyreactivity (PSR sort gate)” value was “high polyreactivity”. In the case of “QVQLVESGGGLVQAGGSLRLSCAASGGTFSVYGMGGYRQAPGKERELVAAITLSGGRTYYADSVKGRFTISRDNATNTLSLQMNSLQPEDTAVYYCNTLPWSRTKRDYWGQGTQGTVSS”, the “polyreactivity (PSR sort gate)” value is reported as “low polyreactivity”. In the case of “QVQLVESGGGLVQAGGSLRLSCAASGYTFAWYAMGWYRQAPGKERELVAAITVSGGSTYYADSVKGRFTISRDNAKNTVYVQMNSLKPEDTAVYYCAADYAPLDLYQDSTVYSSGDYWGQGTQVTVSS”, the “polyreactivity (PSR sort gate)” value is reported as “low polyreactivity”. In the case of “QVQLVESGGGLVQAGGSLRLSCAASGFTFVPYAMGWYRQAPGKERELVAAISSTGGSTYYADSVKGRFTISRDNAKNTVYLQMNSLKPEDTAVYYCAAKITRRYYPGYLFDSWGQGTQVTVSS”, the “polyreactivity (PSR sort gate)” value is reported as “high polyreactivity”. In the case of “QVQLVESGGGLVQAGGSLRLSCAASGSIFRFYAMGWYRQAPGKERELVAGITWSGASTYYADSVKGRFTISRDNAKNTVYFQMNSLKPEDSAVYYCAAKSLIVRYDSWGQGTQVSVSS”, the “polyreactivity (PSR sort gate)” value is reported as “high polyreactivity”. In the case of “QVQLVETGGGLVQAGGSLRLSCAASGRIFYLYAMGWYRQAPGKEWELVAAISSSGGSTYYADSVKGRFTISRDNAKTTVYLQMNSLKPEDTAVYYCNARRRTVPYRYDYWGQGTQVTVSS”, the “polyreactivity (PSR sort gate)” value is reported as “high polyreactivity”. For “QVQLVESGGGLVQAGGSLRLSCAASGFIFDYYAMGWYRQAPGKERELVAAITSRSGSTYYADSVKGRFTISRDNAKNTVYLQMNSLKPEDTAVYYCARRFKYGSTAWRFYYWGQGTQVTVSS”, the “polyreactivity (PSR sort gate)” value was “high polyreactivity”. With “QVQLVESGGGLVQAGGSLRLSCAASGSTFAAYVMGWYRQAPGKERELVAAITKSGSSTYYADSVKGRFTISRDNAKNTVYLQMNSLKPEDTAVEYCAAYPVRVLYDYWGQGTQVTVSS” the “polyreactivity (PSR sort gate)” value was “high polyreactivity”. In the case of “QVQLVESGVGIGQAGGSLRLTCAASGRTVSKYGKGWYRHAPGKEREMVAAISGRGGSTYYADSVKGRFTISRDHAKNTVYLQMNSLNPEDNAVYYCAQDLSYRPHGHGDGHYDFWGQGTQVTVSS”, the “polyreactivity (PSR sort gate)” value is reported as “low polyreactivity”. For “QVQLVESGGGLVQAGGSLRLICAASGRTFKYYAMGWYRQAPGKERELVATITWSGTSTNYADSVKRRFTISRDIGKNSVYLQMNSLKPEDSAVYYCAARSKRRNYDYWGQGTQVTVSS”, the “polyreactivity (PSR sort gate)” value was “high polyreactivity”. For “QVQLVESGGGLVQAGGSLRLSCAASGRTIRWNAMGWYRQAPGKERELVAAIDSVDNTYYADSVNGRFTISRDNAKNTVYFQMNSLKPEDTAVYYCARDTYWQVQMDYWGQGTQVTVSS”, the “polyreactivity (PSR sort gate)” value was “low polyreactivity”. In the case of “QVHLVESGGGLVQAGGSLRLSCSASGSTFNTYAMGWYRQAPGKERELVAAITRGGGGTYYADSVKGRFTISRDNAKNTVYLQMNSLKPEDTAVYYCADKFRYSKYGYWGQGTQVTVSS”, the “polyreactivity (PSR sort gate)” value is reported as “high polyreactivity”. In the case of “QVQLVESGGGLVQAGGSLRLSCAASGRTLASYGMGWYRQAPGKERELVAAISSRGGTTYYADSVKGRFTISRDNAKNTVYLQMNSLKPEDTAVYYCAKPGRYWGQGTQVTVSS”, the “polyreactivity (PSR sort gate)” value is reported as “high polyreactivity”. For “QVQLVESGGGLVQAGGSLSLSSSASGRTFKGNAMGWYIQAPGKERELVAVITGSGGSTYYADSVKGRFTISRDNAKNTVYLQMNSLKPEDTAVYYCNKKLQRRSWYDYWGQGTQVTVSS”, the “polyreactivity (PSR sort gate)” value was “low polyreactivity”. For “QVQLVESGGGLVQAGGSLRLSCAASGFTFSLYAMGWYRQAPGKERELVASIDSDGVSTYYADSVKGRFTISRDNAKNTVYLQMNSLKPEDTAVYYCAADFWWGYISGPVRGRGYYWGQGTQVTVSS”, the “polyreactivity (PSR sort gate)” value was “low polyreactivity”. In the case of “QVQLVESGGGLVQAGGSLRLSCAASGSIFPRYAMGWYRQAPGKERELVAAITGSGSSTYYADSVKGRFTISRDNAKNTVYLQMNSLKPEDTAVYYCAGVYTYPLGYYHYTYDYWGQGTQVTVSS”, the “polyreactivity (PSR sort gate)” value is reported as “low polyreactivity”. In the case of “QVQLVESGGGLVQAGGSLRLSCAASGYTFYVYAMGCYRQAPGKERELVASITSSTSTKYADSVKGRFTISRDNANNTVYLQMNSLKPEDTAVYYCAADSRVPEYRSPKNDYWGQGTQVTVSS”, the “polyreactivity (PSR sort gate)” value is reported as “low polyreactivity”. With “QVQLVESGGGLVQAGGSLRLSCAASGFTISPYAMGWYRQAPGKERELVAGITRNGGSTYYADSVKGRFTISRDNAKNTVYLQMNSLKPEDTAVYYCITKYAVEFDYWGQGTQVTVSS” the “polyreactivity (PSR sort gate)” value was “low polyreactivity”. For “QVQLVESGGRLVQAGGSIRLSCAASGRTFYTNAMGWYRQAPGKERELVAAISSGGSTYYADSVKGRFTISRDNAKNTVYLQMNSLKPEDTAVYYCNVRRGGWGYRYYYWGQGTQVTVSS”, the “polyreactivity (PSR sort gate)” value was “high polyreactivity”. With “QVQLVESGGGLVQAGGSLRLSCAASGSIFWRYAMGWDRQAPGKERELVATITSRGGSTYYADSVKGRFTISRDNAKNTVYLQMNSLKPEDTAVYYCAATGLPGYYAYDYWGQGTQVTVSS” the “polyreactivity (PSR sort gate)” value was “low polyreactivity”. With “QFQLVESGGGLVQAGGSLRLSCAASGFTIYIYAKGWYRQAPGKERELVAAINFRGGSTYYADSVKGRFTISGDNAKKTVYLQLNSLKPEDTAVYYCAAVPRTYSGYYYWGQGTQVSVSS” the “polyreactivity (PSR sort gate)” value was “high polyreactivity”. With “QLQLEESGGGLVQAGGSLRLSCAASGRTFRYYSMGWYRHAPGKEREMVAAISSSGDRTYYADSVKGRFTISRDNATNTVYIQMNSLKPEDTAVYYCANVPYYSRPHDYWGQGTQVTVSS” the “polyreactivity (PSR sort gate)” value was “high polyreactivity”. With “QVQLVESWGVLVQAGGSLRLSCAASGSIFYYYVMGWYRQAPWKERELVAAISYGGGTNYADSVKERFTISRDNAKNTVYLQMISLKPEDTAVYYCNVVTYRRFDYWGQGTQVTVSS” the “polyreactivity (PSR sort gate)” value was “low polyreactivity”. For “QVQLVESGGVLVQAGGSLRLSCAAYGSNFVRNGMGWYRQAPGKEREFVASITSGTITYYADSVKGRFTISRDNAKNTVYLQMNSLKPEDTAVYYCNAGCRSSRFKRPYFRERNYWGQGTQLTVSS”, the “polyreactivity (PSR sort gate)” value was “high polyreactivity”. With “QVQLVESGGGLVQAGGSLRLSCAASGRTFSRYAMGWYRQAPGKERELVATINTRAGITNYPDSVKGRFTISRDNAKNTVYLQMNSLKPEDTAVYYCNRGRPGGPSWYHYVYWGQGTQVTVSS” the “polyreactivity (PSR sort gate)” value was “high polyreactivity”. For “QVQLVESGGRLVQAGGSLRLSCAASGSTFYDYAMGWYRQAPGKERELVASIDSGDSTNYADSVKGRFTISRDNAKNTVYLQMNSLKPEDTAVYYCAADYRAPLDYWGQGTQVTVSS”, the “polyreactivity (PSR sort gate)” value was “low polyreactivity”. In the case of “QVQLVESGGGLVQAGGSLRLSCAASGSIFPYYAMGWYRQAPGKERELVAAITYIGGDTYYADSVKGRFTISRDNAKNTVYLQMNSLKPEETEVYYCNRPSSLAWPWTGSFSRYDYWGQGTQVTVSS”, the “polyreactivity (PSR sort gate)” value is reported as “low polyreactivity”. In the case of “QVQLVESGGGLVQAGGSLRLSCAASGSIFYLYAMGWYRQAPGKERELVARITWSGGRTFYADSVKGRFTISRDNAKNTVYLQMNSLKPEDTAVYYCNARYHGKYDYWGQGTQVTVSS”, the “polyreactivity (PSR sort gate)” value is reported as “high polyreactivity”. In the case of “QVQIVESGGGLVQAAGSLRLSCAAYGRIFGVYAMGWYRQAPGKERELVSNITSGGSTSYADSVKGRFTISRDNAKNTVYLQMNSLKPEDTAVYYCNAPYSFFWQQMNYWGQGTQVTVSS”, the “polyreactivity (PSR sort gate)” value is reported as “low polyreactivity”. In the case of “QVQLQESGGGLVQGGGSLRLSCAASGSNYRSWYMGWYRQAPGKERELVASITEGATTNYAYSVKAALPLAAITRNSVYRQMDSMKPEDTAVYYRGASFGSTYDLVYWGQGTQVTVSS”, the “polyreactivity (PSR sort gate)” value is reported as “high polyreactivity”. For “QVQLVESGGGLVQAGGSLSLSCAASGSIFAYKAMGWYRQAPGKEREFVAVITRSDDSTYADSVKGRFTISRDNAKNNVYLQMNSLKPEDTAVYYCAVVANYVYSKYDYWGQGTQVTVSS”, the “polyreactivity (PSR sort gate)” value was “low polyreactivity”. In the case of “QVQLVESGGGLVQAGGSLRLSCADSGSIFVKNAMGWYRQAPGKERELVATISTGGRTYYADSVKGRFTISLDNAKNTVYLQMNSLKPEDTAVYYCATDFYPRYLLRTYRPYYYWGQGTQVTVSS”, the “polyreactivity (PSR sort gate)” value is reported as “low polyreactivity”. With “QFQLVESGGGLVQAGGSLRLSCAASGIIFRYYGMGWYRQAPGKERELVARILWTGGSTYYADSVKGRFTISRDNAKNTVYFQMNSLKPEDTAVYYSAADIWQYSRIANYHPYEYWGQGTQVTVSS” the “polyreactivity (PSR sort gate)” value was “low polyreactivity”. With “QVQLVESGGGLVQAGGSLRLSCAASGRIFTYYAMGWYRQAPGKERELVASITGSGGSTDYADSVKGRFTISRDNAKNTVYLQMNSLKPEDTAVYYCAADHSGVSRYDYWGQGTQVTVSS” the “polyreactivity (PSR sort gate)” value was “low polyreactivity”. For “QVQLVESGGGLVQAGGSLRLSCAASGSTFLENAMGWYRQAPGKEREFVAAISKSGGSTSYADSVKGRFTISRDNAKNTVYLQMNSLKPEDTAVYYCATRRSRAYDYWGQGTQVTVSS”, the “polyreactivity (PSR sort gate)” value was “high polyreactivity”. With “QVQLVESGGGLVQAGGSLRLSCAASGYTSYVYAMGWYRQAPGKERELVAAISLRTASTYYADSVKGRFTISRDTAQKTVYVQMNSLKPEDTAVYYCARGRETYRYSYRLNYWGQGTQVTVSS” the “polyreactivity (PSR sort gate)” value was “high polyreactivity”. For “QVQLVESGGGLVQAGGSLRLSCAASGLIFGYYGMGWYRQAPGKERELVAVITDDDSTTYADSVKGRFTISRDNAKNTVYLLMNSLKPEDTAVYYCNADNLLGRFDSWGQGTQVTVSS”, the “polyreactivity (PSR sort gate)” value was “low polyreactivity”. For “QVQRVDSGGGLRQAGGSLRLTCSASGSIFGLYAMGWYRQATGKERELVASISKSGGSTYYADCVKGRFTISRDNAKNTVYLQMNRLKPEDTAVYYCAARQYPRAGFDYWGQGTQVPVSS”, the “polyreactivity (PSR sort gate)” value was “high polyreactivity”. For “QVQLVESGGGLVQAGGSLRLTCAASGYTLGYNAMGWYRKAPGKEMELVAAITIDGSTTYADSVKGRFTISRDNAKNTVYLLMNSLKPEDTAVYYCNAEGFTSDPYDSDYWGKGTQVTVSS”, the “polyreactivity (PSR sort gate)” value was “low polyreactivity”. In the case of “QVQLVESGGGLVQAGGSLRLSCAASGRTFVKNAMGWYIQAPGKERELVAAISYRGGSTYYADSVKGRFTISRDNAKNTVYLQMNSLKPEDTAVYYCAAQYLYYRYGGFGYWGQGTQVTVSS”, the “polyreactivity (PSR sort gate)” value is reported as “high polyreactivity”.
